Read-outs that look alike come from different tables or passages of the source.

Experiment [1] deals with human CD7 molecule (human) (UniProt P09564). Put plainly: flow cytometry on H460 cells transfected with pcDNA3.1-CD7.
For experiment [2] the target is unchanged. In words: flow cytometry on CD7-positive Jurkat cells. For orientation: Flow cytometry measures light scatter and fluorescence of single cells or particles in a stream.
Experiment [3] has the same target. In words: flow cytometry on H460 cells transfected with pcDNA3.1-CD7. This is another data set of the same source.

human CD7 molecule (human), sequence (P09564 26-240): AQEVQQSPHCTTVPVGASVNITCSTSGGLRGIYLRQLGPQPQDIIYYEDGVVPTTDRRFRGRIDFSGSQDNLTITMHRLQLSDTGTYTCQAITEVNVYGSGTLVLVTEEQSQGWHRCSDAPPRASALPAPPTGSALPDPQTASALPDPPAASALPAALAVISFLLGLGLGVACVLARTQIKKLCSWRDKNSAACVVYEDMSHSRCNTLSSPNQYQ

For the substance commercial CD7 antibody (BD CD7-PE), the transfection efficiency (percent of cells stained) is 18.8% in experiment [1] and 18% in experiment [3]. This substance also showed a positive rate of CD7+ in experiment [2] of 96.6%.

For the origin of these results see US20170226204A1.
